Data as given in paper PMC9942873 (Immunity, 2023).

Assays:
Experiment in all cases: ELISA
Conditions in all cases: both partners purified
[1] = target: T1, recombinant full-length Pfs48/45 (Plasmodium falciparum 3D7, UniProt Q8I6T1)
Pfs48/45 D1-2 [2] = target: T2, Pfs48/45 D1-2 (Plasmodium falciparum 3D7, UniProt Q8I6T1)
Pfs48/45 D2-3 [3] = target: T3, Pfs48/45 D2-3 (Plasmodium falciparum 3D7, UniProt Q8I6T1)
[4] = target: T1, recombinant full-length Pfs48/45; remark: listed apart in the source
Pfs48/45 D1-2 [5] = target: T2, Pfs48/45 D1-2; remark: listed apart in the source
Pfs48/45 D2-3 [6] = target: T3, Pfs48/45 D2-3; remark: listed apart in the source

Measured: binding result

T2 sequence (Q8I6T1 28-289): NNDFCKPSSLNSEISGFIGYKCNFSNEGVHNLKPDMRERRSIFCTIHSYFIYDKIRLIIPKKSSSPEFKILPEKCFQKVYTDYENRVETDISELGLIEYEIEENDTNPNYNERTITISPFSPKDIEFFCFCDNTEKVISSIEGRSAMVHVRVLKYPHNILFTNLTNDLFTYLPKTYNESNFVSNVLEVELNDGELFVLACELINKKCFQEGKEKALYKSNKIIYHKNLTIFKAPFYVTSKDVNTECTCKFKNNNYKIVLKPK
T3 sequence (Q8I6T1 184-428): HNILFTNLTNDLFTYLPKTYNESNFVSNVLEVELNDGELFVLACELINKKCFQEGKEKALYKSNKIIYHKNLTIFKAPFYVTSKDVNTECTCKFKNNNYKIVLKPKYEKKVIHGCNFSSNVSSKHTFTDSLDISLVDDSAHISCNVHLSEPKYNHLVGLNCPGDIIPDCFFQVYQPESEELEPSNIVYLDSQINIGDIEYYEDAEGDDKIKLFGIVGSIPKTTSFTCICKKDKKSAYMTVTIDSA
T1 sequence (Q8I6T1 28-428): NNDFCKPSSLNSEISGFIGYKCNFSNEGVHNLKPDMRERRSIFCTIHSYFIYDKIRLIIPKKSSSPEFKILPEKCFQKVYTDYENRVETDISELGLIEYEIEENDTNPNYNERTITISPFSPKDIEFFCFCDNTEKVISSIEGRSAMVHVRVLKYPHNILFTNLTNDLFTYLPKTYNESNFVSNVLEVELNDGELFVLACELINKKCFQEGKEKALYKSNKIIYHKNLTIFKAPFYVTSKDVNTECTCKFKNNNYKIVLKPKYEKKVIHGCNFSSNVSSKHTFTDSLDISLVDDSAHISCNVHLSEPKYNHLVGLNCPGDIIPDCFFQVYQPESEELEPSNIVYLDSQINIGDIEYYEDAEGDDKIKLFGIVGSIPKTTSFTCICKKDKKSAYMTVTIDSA

B1: RUPA-150 (antibody, V domains shown)
VH: QVQLQQWGAGLLKPSETLSLTCLVNGGSFSDYYWSWIRQPPGRGLEWIGDVNHSGTTNHRPSLQSRVTLSLDMSKNQFSLKLTSVTAADTAVYFCARRSSGYYRGSRYTGWFDPWGQGTLVTVSS
VL: EIVMTQSPATLSVSPGERATLSCRASQSVSSNLAWYQQKPGQTPRLLIYGSSTRATGIPARFSGSGSGTEFALTISSLQSEDFAVYYCQQYNNWPPPWTFGQGTKVEIK
notes: human IgG1; source: recombinant human IgG1, 293T (Protein A purified) or GenScript
binds: [1] | Pfs48/45 D1-2 [2] | Pfs48/45 D2-3 [3]

B2: RUPA-153 (antibody, V domains shown)
VH: QVQLQESGPGLVKPSQTLSLTCTVSGSSVSSGGYYWSWIRQHPGKGLEWIGYLYYSGNTGNTFYNPSLKSRVTISADPSKNQFSLELSSVTAADTAMYYCARAVGVGRYFGYFPSWGLGTLVTVSS
VL: EIVMTQSPATLSVSPGERATLSCRASQSVSSNLAWYQQKPGQTPRLLIYGSSTRATGIPARFSGSGSGTEFALTISSLQSEDFAVYYCQQYNNWPPPWTFGQGTKVEIK
notes: as for B1
binds: [1] | Pfs48/45 D1-2 [2] | Pfs48/45 D2-3 [3]

B3: RUPA-74 (antibody, V domains shown)
VH: QVQLVQSGAEVKKPGASVKVSCKASGYNFLYHDINWVRQAPGQGLEWMGWMNPNTGNRGYAQQFQDRVSLTRDMSQGTAYMELRNLRSDDTAVYYCARGVGSLYGSGGWIDPWGQGTLVTVSS
VL: QSVLTQPPSASETPGQRVTISCSGSSSNIGSNTVNWYQQVPGTAPKLLMYNDNHRPSGVSDRFSGSKSGTSASLAISGLQSADEADYYCETWDDSLKRRVFGGGTKLTVL
notes: as for B1
binds: [4] | Pfs48/45 D1-2 [5] | Pfs48/45 D2-3 [6]

B4: RUPA-63 (antibody, V domains shown)
VH: QVQLVQSGAEVKKTGASVKVSCKASGYTFTSHDIIWVRQAAGQGLEWMGWMNPNTGKKGYAQRFQGRITLTRNMSTGTAYMELGSLRSDDSAIYYCARGVGTYYGSEGWLDPWGQGTLVTVSS
VL: QSVLTQPPSASETPGQRVTISCSGSSSNVGSNTVNWYQQLPGTAPKLLMYNTNQRPSGVPDRFSGSKSGTSASLAISGLRSEDEADYYCAAWDDSLKRGVFGGGTRLTVL
notes: as for B1
binds: [4] | Pfs48/45 D1-2 [5] | Pfs48/45 D2-3 [6]

B5: RUPA-144 (antibody, V domains shown)
VH: QVQLVQSGAEVKKTGASVKVSCKASGYTFTSHDIIWVRQAAGQGLEWMGWMNPNTGKKGYVQKFQGRVMLTRNMSTGTAYMELSSLRSDDSAVYYCARGVGTYYGSEGWLDPWGQGTLVTVSS
VL: QSVLTQPPSASETPGQRVTISCSGSSSNVGSNTVNWYQQLPGTAPKLLMYNTNQRPSGVPDRFSGSKSGTSASLAISGLRSDDEADYYCATWDDSLKRGVFGGGTKLTVL
notes: as for B1
binds: [1] | Pfs48/45 D1-2 [2] | Pfs48/45 D2-3 [3]

B6: RUPA-151 (antibody, V domains shown)
VH: QVQLVQSGAEVKKTGASVKVSCKASGYTFTSHDIIWVRQAAGQGLEWMGWLNPNTGKKGYVEKFQGRVMLTRNMSTGTAYMELSSLRSDDSAIYYCARGVGTYHGSEGWLDPWGQGTLVTVSS
VL: QSVLTQPPSASETPGQGVTISCSGSSSNVGSNAVNWYQQLPGRAPKLLMYNTNQRPSGVPDRFSGSKSGTSASLAISGLRSADEADYYCAAWDDSLKRGVFGGGTKLTVL
notes: as for B1
binds: [1] | Pfs48/45 D1-2 [2] | Pfs48/45 D2-3 [3]

B7: RUPA-68 (antibody, V domains shown)
VH: QVQLVQSGAELKKPGASVKVSCKASGYTFTSHDITWVRQAAGQGLEWMGWMNPNTGDKGYAQKFQGRVTMTRNMSTRTAYMEVNSLTSEDTAVYYCARGVGTYHGAGGWFDPWGQGTLVTVSS
VL: QSVVTQPPSVSETPGQRVTISCSGSSSNIGSNIVSWYQQLPGTAPKLLIYSDNQRPSGVPDRFSASKSGTSASLAISGLQSEDEADYYCATWDDSLKRGVFGGGTKLTVL
notes: as for B1
binds: [4] | Pfs48/45 D1-2 [5] | Pfs48/45 D2-3 [6]

B8: RUPA-147 (antibody, V domains shown)
VH: QVQLVQSGAEVKKPGASVKVSCTASGYNFLTHDISWVRQATGQGLEWMGWMNPNTGKKGYVQKFQGRVTMDRDMSKSTAYMELRSLTSEDTAVYYCVRGVGSYYGSGGWFDPWGQGTLVTVSS
VL: QSVLTQPPSASETPGQKVTISCSGSSSNIGSDTVSWYVQLPGTAPKLLIYNDNQRPSRVPDRFSGSKSGTSASLAISGLQSEDEADYYCATWDASLKRRVFGGGTTLTVL
notes: as for B1
binds: [1] | Pfs48/45 D1-2 [2] | Pfs48/45 D2-3 [3]

B9: RUPA-148 (antibody, V domains shown)
VH: QVQLVQSGAEVKKPGASVKVSCTASGYNFLTHDISWVRQATGQGLEWMGWMNPNTGKKGYVQKFQGRVTMDRDMSKSTAYMELRSLTSEDTAVYYCVRGVGSYYGSGGWFDPWGQGTLVTVSS
VL: QSVLTQPPSASETPGQKVTISCSGSSSNIGSDTVSWYVQLPGTAPKLLIYNDNQRPPGVPDRFSGSKSGTSASLAISGLQSEDEADYYCATWDASLKRRVFGGGTTLTVL
notes: as for B1
binds: [1] | Pfs48/45 D1-2 [2] | Pfs48/45 D2-3 [3]

B10: RUPA-81 (antibody, V domains shown)
VH: EVQLVATGGGLIQPGGSLRLSCTASGFNVSRMYMSWVRQAPGKGLEWVSVIYSDSSGGSTYYTDSLKGRFIISRDNSQNTLYLQMNSLRVDDTAIYYCARDVRGWGYLDFWGQGTLVTVSS
VL: EIVLTQSPGTLSLSPGERAALSCRASQGVSSSFFAWYQQKPGQAPRLLIYGASSRATGIPDRFSGSGSGTDFTLTISRLEPEDFATYYCQQYGYSPWTFGQGTKVEIK
notes: as for B1
binds: [4] | Pfs48/45 D1-2 [5] | Pfs48/45 D2-3 [6]

B11: RUPA-83 (antibody, V domains shown)
VH: QVQLVQSGAEVKKPGASVKVSCKASGYIFTDYGITWVRQAPGQGLEWLGWISGYSYNTNYALKFQGRVTMTTDTSTSVTYMELRNLRSDDTAVYYCARDSRSSQLLQKFDLWGQGTLVTVSS
VL: DIQLTQSPSSLSASVGDRVTITCRASQTTRNFLNWYQQKPGKAPELLIYAASTLQSGVPSRFSGSGSGTDFTLTIKNLQPEDFASYYCQQSFSSPTFGQGTKVEIK
notes: as for B1
binds: [4] | Pfs48/45 D1-2 [5] | Pfs48/45 D2-3 [6]

B12: RUPA-65 (antibody, V domains shown)
VH: QVQLVQSGAEVKKPGASVKVSCKASGYTFLYHDIIWMRQATGQGPEWMGWINPNTGNTGHAQKFQGRVTLTRNMSSGTAYMELRSLRSEDTAVYYCARGVGTYHGSGGWFDPWGQGTLVTVSS
VL: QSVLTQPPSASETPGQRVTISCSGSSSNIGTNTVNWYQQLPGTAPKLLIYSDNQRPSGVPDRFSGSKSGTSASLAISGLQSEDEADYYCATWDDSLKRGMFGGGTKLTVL
notes: as for B1
binds: [4] | Pfs48/45 D1-2 [5] | Pfs48/45 D2-3 [6]

B13: RUPA-161 (antibody, V domains shown)
VH: QVQLVQSGAEVKKPGASVKVSCKASGYTFLYHDIIWMRQATGQGPEWMGWINPNTGNTGLAQKFQGRVSLTRNMSSGTAYMELRSLRSEDRAIYYCARGVGTYHGSGGWFDPWGQGTLVTVSS
VL: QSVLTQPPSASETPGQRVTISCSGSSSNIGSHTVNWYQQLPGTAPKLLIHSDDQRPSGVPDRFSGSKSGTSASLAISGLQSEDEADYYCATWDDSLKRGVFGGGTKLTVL
notes: as for B1
binds: [1] | Pfs48/45 D1-2 [2] | Pfs48/45 D2-3 [3]

B14: RUPA-149 (antibody, V domains shown)
VH: EVQLVESGGGVVQPGGSLRLSCAASGFTFSNFGMHWVRQAPGKGLEWVAKISYDGSNKYYADFVKGRFTISRDKATNTVHLQMNSLSAEDRGIYYCAKDKVFGVVANHHQYGLDVWGQGTTVTVSS
VL: DIQMTQSPASLSASVGDRVTITCRASQNIHLYLHWYQQKPGKAPELLIFTTNTLHRGVPSRFRGSGSGTEFALTISDLQPEDFATYYCQQSYTTPHFTFGQGTKLEIK
notes: as for B1
binds: [1] | Pfs48/45 D1-2 [2] | Pfs48/45 D2-3 [3]
